Test results taken from publication PMC9481576.

Target: human α-thrombin (human) (UniProt P00734)
Test: enzyme inhibition assay (chromogenic thrombin amidolytic activity); 0.14 nM human α-thrombin, 100 μM N-(p-Tosyl)-GPR-pNA, varying concentrations of inhibitor; 50 mM Tris-HCl, 50 mM NaCl, pH 8; absorption at 405 nm; Ki from a Morrison equation

chimadanin sulfated at both Tyr28 and Tyr31 (natural protein)
Ki: 0.1 nM

wildtype chimadanin (natural protein)
Ki: 12.9 nM

madanin-1 with sTyr at Tyr35 (natural protein)
Ki: 6.1 nM

chimadanin with sTyr at Tyr31 (natural protein)
Ki: 1.5 nM

madanin-1 with sTyr at Tyr32 (natural protein)
Ki: 1.3 nM

wildtype madanin-1 (natural protein)
Ki: 16 nM

madanin-1 sulfated at both Tyr32 and Tyr35 (natural protein)
Ki: 0.5 nM

chimadanin with sTyr at Tyr28 (natural protein)
Ki: 0.6 nM
